# US20040253247A1 (Genentech, published 2004)
# Bridges are numbered along the chain shown (N, C = ends). Where no end group is shown, it is not given here. code n = not defined here
# T1: ovalbumin (UniProt P01012 2-386)
# T1 sequence (looked up): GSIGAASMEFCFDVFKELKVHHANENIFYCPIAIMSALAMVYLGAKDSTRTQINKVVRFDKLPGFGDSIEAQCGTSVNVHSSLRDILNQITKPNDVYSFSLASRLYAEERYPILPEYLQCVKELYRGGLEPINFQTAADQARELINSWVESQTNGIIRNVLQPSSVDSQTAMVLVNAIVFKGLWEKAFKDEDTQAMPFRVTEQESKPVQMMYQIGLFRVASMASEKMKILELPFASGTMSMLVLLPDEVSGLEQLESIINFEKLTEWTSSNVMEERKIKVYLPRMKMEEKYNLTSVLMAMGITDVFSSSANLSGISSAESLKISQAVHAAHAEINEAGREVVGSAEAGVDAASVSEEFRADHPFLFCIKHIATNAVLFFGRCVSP
# B1: HC (peptide)
# peptide: EMCYFPGICWM
# modifications: not fully specified (bridges); printed as Glu-Met-Cys-Tyr-Phe-Pro-Gly-Ile-Cys-Trp-Met; cysteine pairing not given here
# notes: phage clone selected on human SA
# B2: HA-H74 (peptide)
# peptide: EVRSFCTDWPAHYSCTSLQG
# notes: phage clone, Library HA
# B3: Fc-I peptide ETQRCTWHMGELVWCEREHN (peptide)
# peptide: H-ETQRCTWHMGELVWCEREHN-NH2
# modifications: disulfide 5-15 (inferred)
# notes: Synthetic peptide; disulfide-constrained library origin
# B4: Fc-II peptide KEASCSYWLGELVWCVAGVE (peptide)
# peptide: H-KEASCSYWLGELVWCVAGVE-NH2
# modifications: disulfide 5-15 (inferred)
# notes: as for B3
# B5: HA (peptide)
# peptide: EVRSFCTDWPAEKSCKPLRG
# modifications: not fully specified (bridges); printed as Glu-Val-Arg-Ser-Phe-Cys-Thr-Asp-Trp-Pro-Ala-Glu-Lys-Ser-Cys-Lys-Pro-Leu-Arg-Gly; cysteine pairing not given here
# notes: as for B1
# B6: peptide DLADCSWHMGELVWCSRVEG (peptide)
# peptide: H-DLADCSWHMGELVWCSRVEG-NH2
# modifications: disulfide 5-15 (inferred)
# notes: Synthetic peptide
# B7: peptide WEADCAWHLGELVWCTPMEF (peptide)
# peptide: H-WEADCAWHLGELVWCTPMEF-NH2
# modifications: disulfide 5-15 (inferred)
# notes: Synthetic peptide
# B8: HB-H2 (peptide)
# peptide: RAAESSVCYWPGICFDRTEQ
# modifications: not fully specified (bridges); cysteine pairing not given here
# notes: phage clone, Library HB
# B9: SA08 (peptide)
# peptide: Ac-QGLIGDICLPRWGCLWGDSVK-{code n}
# modifications: disulfide 8-14 (inferred); reading uncertain; also: printed as Gln-Gly-Leu-Ile-Gly-Asp-Ile-Cys-Leu-Pro-Arg-Trp-Gly-Cys-Leu-Trp-Gly-Asp-Ser-Val-Lys
# notes: synthesized peptide; not biotinylated form of SA08b; also called SA08 peptide
# B10: BA-B44 (peptide)
# peptide: GEDWCDSTLLAFDLCGEGAR
# notes: phage clone, Library BA
# B11: BA-B39 (peptide)
# peptide: MELWCDSTLMAYDLCGDFNM
# notes: phage clone, Library BA
# B12: RBC-R14 (peptide)
# peptide: EEDLCLPVWGCLWGA
# modifications: not fully specified (bridges); cysteine pairing not given here
# notes: phage clone, Library RBC
# B13: SA06 (peptide)
# peptide: QRLMEDICLPRWGCLWEDDF-{code n}
# modifications: disulfide 8-14 (inferred); not fully specified; reading uncertain
# notes: synthesized peptide; also called Peptide SA06
# B14: BA-B37 (peptide)
# peptide: GENWCDWVLLAYDLCGEDNT
# notes: phage clone, Library BA
# B15: RC-R13 (peptide)
# peptide: DICLPRWGCLW
# notes: phage clone, Library RC
# Columns and labels:
# rat albumin [1] = target: T2, rat albumin (rat, UniProt P02770 25-608); test: phage ELISA
# T2 sequence (P02770 25-608 limits assumed): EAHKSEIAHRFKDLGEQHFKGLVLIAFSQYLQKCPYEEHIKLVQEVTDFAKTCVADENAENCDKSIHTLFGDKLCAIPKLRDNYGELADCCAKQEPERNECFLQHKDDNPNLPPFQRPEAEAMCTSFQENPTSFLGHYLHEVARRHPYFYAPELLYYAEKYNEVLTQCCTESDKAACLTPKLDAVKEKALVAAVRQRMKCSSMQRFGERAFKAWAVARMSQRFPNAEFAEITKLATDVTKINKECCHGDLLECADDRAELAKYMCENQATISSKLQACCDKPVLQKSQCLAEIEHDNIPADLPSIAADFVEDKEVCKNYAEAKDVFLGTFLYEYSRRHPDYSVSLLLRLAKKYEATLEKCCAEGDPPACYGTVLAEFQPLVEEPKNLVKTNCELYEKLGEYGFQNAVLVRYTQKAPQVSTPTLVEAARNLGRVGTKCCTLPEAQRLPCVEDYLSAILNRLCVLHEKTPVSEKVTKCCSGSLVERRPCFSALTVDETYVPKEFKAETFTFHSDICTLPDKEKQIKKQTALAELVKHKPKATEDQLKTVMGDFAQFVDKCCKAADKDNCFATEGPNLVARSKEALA
# Description: (§1) Phage ELISA—Phage clones (˜10¹¹ phage) were added to plates coated with rat, rabbit or human albumin. The microtiter plate was washed with wash buffer and bound phage were detected with HRP/Anti-M13 Conjugate. The amount of HRP bound was measured using ABTS/H₂O₂ substrate and monitoring the change at 405 nm.
# (§2) This was tested using a phage ELISA.
# human albumin [2] = target: T3, human albumin (human, UniProt P02768 25-609); test: phage ELISA
# Description: as §1, §2
# rabbit albumin [3] = target: T4, rabbit albumin (rabbit, UniProt P49065 25-608); test: phage ELISA
# T4 sequence (P49065 25-608 limits assumed): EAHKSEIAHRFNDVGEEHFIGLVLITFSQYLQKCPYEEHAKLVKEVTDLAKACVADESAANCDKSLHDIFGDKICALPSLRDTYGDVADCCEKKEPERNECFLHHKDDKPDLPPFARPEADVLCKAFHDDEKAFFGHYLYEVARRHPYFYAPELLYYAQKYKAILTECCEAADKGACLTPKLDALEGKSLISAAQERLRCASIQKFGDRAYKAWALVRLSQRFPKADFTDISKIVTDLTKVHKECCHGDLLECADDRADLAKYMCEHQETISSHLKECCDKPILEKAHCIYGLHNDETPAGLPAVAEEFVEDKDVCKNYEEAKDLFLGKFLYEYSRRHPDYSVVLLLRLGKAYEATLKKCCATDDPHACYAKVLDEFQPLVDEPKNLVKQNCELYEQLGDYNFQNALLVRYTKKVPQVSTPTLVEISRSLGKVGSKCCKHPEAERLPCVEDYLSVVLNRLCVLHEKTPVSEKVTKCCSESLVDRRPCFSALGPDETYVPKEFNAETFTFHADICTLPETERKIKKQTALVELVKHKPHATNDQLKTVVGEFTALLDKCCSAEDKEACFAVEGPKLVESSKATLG
# Description: as §1, §2
# rat albumin [4] = target: T2, rat albumin; test: phage ELISA, photograph of the plate
# mouse albumin [5] = target: T5, mouse albumin (mouse, UniProt P07724 25-608); test: phage ELISA, photograph of the plate
# T5 sequence (P07724 25-608 limits assumed): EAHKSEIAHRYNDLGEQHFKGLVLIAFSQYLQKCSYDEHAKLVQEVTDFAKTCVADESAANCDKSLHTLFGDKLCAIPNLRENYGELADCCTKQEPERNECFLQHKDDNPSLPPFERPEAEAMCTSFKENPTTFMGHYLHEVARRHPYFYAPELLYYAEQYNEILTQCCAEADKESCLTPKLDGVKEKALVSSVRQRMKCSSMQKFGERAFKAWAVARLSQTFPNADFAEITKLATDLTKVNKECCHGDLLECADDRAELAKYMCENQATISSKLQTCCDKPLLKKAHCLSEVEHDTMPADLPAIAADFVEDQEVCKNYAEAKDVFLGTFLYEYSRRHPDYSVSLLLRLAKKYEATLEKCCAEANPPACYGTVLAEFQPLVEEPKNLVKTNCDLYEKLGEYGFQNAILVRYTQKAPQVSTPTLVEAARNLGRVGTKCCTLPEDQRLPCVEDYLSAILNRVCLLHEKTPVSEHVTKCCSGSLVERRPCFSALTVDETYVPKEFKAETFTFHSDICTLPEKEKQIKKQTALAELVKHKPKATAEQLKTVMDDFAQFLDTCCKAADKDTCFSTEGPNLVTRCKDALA
# rabbit albumin [6] = target: T4, rabbit albumin; test: phage ELISA, photograph of the plate
# ovalbumin = target: T1, ovalbumin; test: phage ELISA, photograph of the plate
# IgG-Fc [7] = target: T6, IgG-Fc (UniProt P01857-1 108-330 = IgG part, limits assumed); test: competition ELISA against immobilized Protein A Z-domain for biotinylated IgG-Fc; IC50 extrapolated to zero IgG-Fc
# T6 construct: domain: IgG-Fc; also called biotinylated-IgG-Fc; biotin-IgG-Fc
# Description: Competition ELISAs were performed in a manner similar to the method described in H. B. Lowman, et al., supra. […] Plates were then washed and developed as described using avidin/HRP conjugate. Inhibition curves were then computed for each concentration of biotin-IgG-Fc, and then the curve of half-maximal inhibition, “IC₅₀”, was extrapolated to zero biotin-IgG-Fc concentration in order to obtain a Kᵢ.
# IgG-Fc [8] = target: T6, IgG-Fc; test: synthetic peptide; method of the Kd not named
# IgG-Fc [9] = target: T6, IgG-Fc; test: synthetic peptide; competition assay not given
# rabbit albumin [10] = target: T4, rabbit albumin; test: phage ELISA; remark: listed apart in the source
# Description: as §1
# rat albumin [11] = target: T2, rat albumin; test: SA08b binding assay: competition with biotinylated SA08b for immobilized albumin
# Description: (§3) Plates were blocked using Blocker Casein (Pierce Chemical, Rockford, Ill.) for 1 hr, at 25° C. […] The amount of HRP bound was measured using ABTS/H₂O₂ substrate and monitoring the change at 405 nm.
# mouse albumin [12] = target: T5, mouse albumin; test: as above
# Description: as §3
# rabbit albumin [13] = target: T4, rabbit albumin; test: as above
# Description: as §3
# [14] = target: T7, albumin (species not stated, D3H44 fusion assays); test: SA08b competition binding assay (competitor: biotinylated SA08b), albumin species not given
# T7 construct: also called immobilized albumin
# T7 sequence (P49065 25-608): as the sequence (P49065 25-608 limits assumed) above
# Description: as §3
# rhesus albumin = rhesus albumin (rhesus, UniProt Q28522 17-600); test: phage ELISA, photograph of the plate
# rhesus albumin, sequence (Q28522 17-600 limits assumed): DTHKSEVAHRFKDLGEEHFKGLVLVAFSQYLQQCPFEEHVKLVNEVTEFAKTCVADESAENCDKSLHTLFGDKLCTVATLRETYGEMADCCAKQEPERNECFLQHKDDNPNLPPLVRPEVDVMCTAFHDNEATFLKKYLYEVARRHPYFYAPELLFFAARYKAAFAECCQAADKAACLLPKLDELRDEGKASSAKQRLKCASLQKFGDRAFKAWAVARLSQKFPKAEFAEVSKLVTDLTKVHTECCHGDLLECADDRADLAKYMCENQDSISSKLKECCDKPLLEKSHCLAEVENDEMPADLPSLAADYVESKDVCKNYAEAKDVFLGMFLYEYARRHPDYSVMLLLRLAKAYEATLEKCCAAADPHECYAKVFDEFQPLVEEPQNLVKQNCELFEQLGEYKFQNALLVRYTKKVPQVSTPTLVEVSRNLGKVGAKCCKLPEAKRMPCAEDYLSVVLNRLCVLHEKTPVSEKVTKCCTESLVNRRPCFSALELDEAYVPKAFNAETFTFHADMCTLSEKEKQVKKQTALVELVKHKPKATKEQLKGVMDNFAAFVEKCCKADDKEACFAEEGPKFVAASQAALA
# bovine albumin = bovine albumin (bovine, UniProt P02769 25-607); test: phage ELISA, photograph of the plate
# bovine albumin, sequence (P02769 25-607 limits assumed): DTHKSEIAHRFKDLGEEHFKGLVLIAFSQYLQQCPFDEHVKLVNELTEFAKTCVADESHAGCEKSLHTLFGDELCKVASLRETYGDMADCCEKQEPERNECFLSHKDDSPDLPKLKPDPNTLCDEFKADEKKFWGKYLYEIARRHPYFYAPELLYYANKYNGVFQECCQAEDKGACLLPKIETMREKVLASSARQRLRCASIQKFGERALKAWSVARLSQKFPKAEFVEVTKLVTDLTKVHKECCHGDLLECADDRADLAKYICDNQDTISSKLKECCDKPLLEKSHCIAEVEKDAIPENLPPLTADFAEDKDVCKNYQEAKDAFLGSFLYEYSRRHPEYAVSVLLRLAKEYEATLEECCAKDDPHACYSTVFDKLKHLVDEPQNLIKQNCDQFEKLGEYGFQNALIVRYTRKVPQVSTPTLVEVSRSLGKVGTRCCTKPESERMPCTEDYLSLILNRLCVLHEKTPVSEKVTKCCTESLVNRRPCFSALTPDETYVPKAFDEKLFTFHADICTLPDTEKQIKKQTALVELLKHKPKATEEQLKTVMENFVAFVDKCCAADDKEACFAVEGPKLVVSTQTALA
# human albumin [15] = target: T3, human albumin; test: phage ELISA; remark: listed apart in the source
# Description: as §1
# human albumin [16] = target: T3, human albumin; test: phage ELISA, photograph of the plate
# rat albumin [17] = target: T2, rat albumin; test: SA08b competition binding assay with a rat albumin coat
# Description: as §3
# mouse albumin [18] = target: T5, mouse albumin; test: SA08b competition binding assay with a mouse albumin coat
# Description: as §3
# rabbit albumin [19] = target: T4, rabbit albumin; test: SA08b competition binding assay with a rabbit albumin coat
# Description: as §3
binder,measurement,setting,value
B1,binding result,rat albumin [1],binds
same,binding result,human albumin [2],binds
same,binding result,rabbit albumin [3],no binding
B2,binding result,rat albumin [4],no binding
same,binding result,mouse albumin [5],no binding
same,binding result,rabbit albumin [6],no binding
same,binding result,ovalbumin,no binding
B3,Ki,IgG-Fc [7],5000 nM
B4,Ki,IgG-Fc [7],5000 nM
B5,binding result,rat albumin [1],no binding
same,binding result,human albumin [2],binds
same,binding result,rabbit albumin [3],no binding
B6,Kd,IgG-Fc [8],50 nM
B7,IC50,IgG-Fc [9],30 nM
B8,binding result,rat albumin [4],no binding
same,binding result,mouse albumin [5],no binding
same,binding result,ovalbumin,no binding
same,binding result,rabbit albumin [10],no binding
B9,IC50,rat albumin [11],68 nM
same,IC50,mouse albumin [12],10 nM
same,IC50,rabbit albumin [13],63 nM
same,IC50 (read off the curve),[14],~10 nM
B10,binding result,rat albumin [4],no binding
same,binding result,mouse albumin [5],no binding
same,binding result,rhesus albumin,no binding
same,binding result,bovine albumin,no binding
same,binding result,ovalbumin,no binding
same,binding result,human albumin [15],no binding
B11,binding result,rat albumin [4],no binding
same,binding result,mouse albumin [5],no binding
same,binding result,rhesus albumin,no binding
same,binding result,human albumin [16],no binding
same,binding result,ovalbumin,no binding
B12,binding result,bovine albumin,no binding
same,binding result,ovalbumin,no binding
same,binding result,human albumin [15],no binding
same,binding result,rabbit albumin [10],no binding
B13,IC50,rat albumin [17],61 nM
same,IC50,mouse albumin [18],8 nM
same,IC50,rat albumin [11],68 nM
same,IC50,mouse albumin [12],8 nM
same,IC50,rabbit albumin [13],128 nM
same,IC50,rabbit albumin [19],174 nM
B14,binding result,rat albumin [4],no binding
same,binding result,mouse albumin [5],no binding
same,binding result,rhesus albumin,no binding
same,binding result,human albumin [16],no binding
same,binding result,ovalbumin,no binding
B15,binding result,bovine albumin,no binding
same,binding result,ovalbumin,no binding
same,binding result,human albumin [15],no binding
